In patent publication US9273140B2, “Antibody for detecting DNA damage in cells utilizing cell membrane surface antigen Ly6D” (FUJITA HEALTH UNIVERSITY, priority 2012, dated 2016):

How the values were obtained:
[1] = system: LY6D expression on the surfaces of MCF10A cells; assay: LY6D expression in MCF10A cells incubated with DNA-damaging stressors, by FCM; format: cell-based; settings: contact with DNA-damaging stressor (MMC 300 nM; hydroxyurea 2 mM), FIG. 4
Protocol: MCF10A cells were incubated with DNA-damaging stressor (MMC: 300 nM), carboplatin, hydroxyurea (2 mM), or aphidicolin and relative LY6D expression was determined by FCM.
After the growth to confluence, the cells were irradiated at 10Gy (3 mA/50 kV) in cabinet-type X-ray apparatus (SOFRON, soft X-ray inversion system). At a desired timing after irradiation, the cells were harvested.
The FCM analysis was carried out according to the method reported previously (Kurosawa et al., 2009, Immunol. Meth. 351: 1-12). Reactivity of the obtained anti-Ly6D antibodies was examined using the Ly6D expression cell line, namely A431™ (cell line human squamous carcinoma) (CML ATCC CCL-243). The A431 cells were recovered by centrifugation. The recovered cells were washed once with PBS and then suspended in FACS Buffer (PBS containing 1% BSA, 2 mM EDTA, and 0.1% NaN3) to result in 1×10^6 cells/mL. The cell suspension (100 μL) was dispensed on a 96-well V-bottomed plate (Costar 3897). The Ly6D antibodies were adjusted to a concentration of 0.02 to 2 μg/mL using FACS Buffer. The prepared antibody solution (100 μL) was added to the cells, followed by incubation at 4° C. for 1 hour. The cells were washed twice with FACS buffer. Then, 100 μL of ALEXAFLUOR-anti-human IgG™ (fluorescent antibody) (Invitrogen) diluted 750-fold with FACS Buffer was added to the cells, followed by another incubation at 4° C. for 1 hour. The cells were washed with FACS Buffer twice by centrifugation and set in HTS of FACS Calibur (BD) for measurement of FL1 fluorescence intensity of each well.
It is well known that X-ray irradiation causes damage to DNA, which results in DNA double-strand breaks. A variety of chemical reagents also cause DNA damage stress in cells. Therefore, the influence of camptothecin (CPT) on the LY6D expression in MCF10A cells was examined. […] Therefore, the induction of LY6D expression on the surfaces of MCF10A cells was confirmed to be a common phenomenon due to DNA damage stress.

LY6D expression = settings: Rubinfeld et al., 2006; cited from earlier work
MCF10A cells = assay: Selection of monoclonal antibodies by cell ELISA, FCM and confocal laser microscopy on X-ray-irradiated and non-irradiated cells; format: binding
Protocol: X-ray-irradiated MCF10A cells (black bars) and non-irradiated MCF10A cells (gray bars) were subjected to ELISA using six monoclonal antibodies (A: cell ELISA). X-ray-irradiated cells (pink) and non-irradiated cells (green) were incubated with six monoclonal antibodies and subjected to FCM, and non-irradiated cells incubated with PBS were used as a negative control (purple) (B: FCM). X-ray-irradiated cells and non-irradiated cells were stained with the E33-139 monoclonal antibody (green) and DAPI (blue), respectively, and examined using a confocal laser microscope (C: immunofluorescence confocal laser microscopy).
X-ray-irradiated cells and non-irradiated cells were prepared, and antibodies specific to the irradiated cells were screened for by cell ELISA. That is, reactivity of antibody to both cells was examined by ELISA. A blocking solution (5% skim milk/0.05% NaN3/PBS) was added at 200 μL/well to both cells, followed by blocking at 37° C. for 2 hours. The blocking solution was removed and the cells were washed with PBS. The supernatant of the above antibody expression culture was added at 100 μL/well, followed by reaction at 37° C. for 1 hour. The resultant was washed five times with PBS. Rabbit anti-cp3 (1 μg/mL) diluted with PBS/0.05% Tween 20 was added at 100 μL/well, followed by reaction at 37° C. for 1 hour. The resultant was washed five times with PBS. Anti-Rabbit IgG (H+L)-HRP diluted 2000-fold with PBS/0.05% Tween 20 was further added at 100 μL/well, followed by reaction at 37° C. for 1 hour. The resultant was washed five times with PBS. […] Then, the absorbance at 492 nm was measured by SPECTRAmax340PC (Molecular Devices). Antibodies showing obvious positive reactivity specific to only the irradiated cells were selected and DNA sequences of the phages were analyzed. […]
The FCM analysis was carried out according to the method reported previously (Kurosawa et al., 2009, Immunol. Meth. 351: 1-12). […] The cells were washed with FACS Buffer twice by centrifugation and set in HTS of FACS Calibur (BD) for measurement of FL1 fluorescence intensity of each well. […]

LY6D = molecular target: T1, LY6D (Homo sapiens, UniProt Q14210); assay: Immunoprecipitation, western blot and mass spectrometry to identify the antigen recognized by the antibody; format: binding; settings: for 14 kDa band in western blot of immunoprecipitate: FIG. 2A
T1 construct: LY6D was identified by the precipitate derived from the X-ray-irradiated cells; endogenous in cells; host or cells: MCF10A cells (X-ray-irradiated and non-irradiated); FaDu cells
T1 sequence (Q14210 21-98 limits assumed): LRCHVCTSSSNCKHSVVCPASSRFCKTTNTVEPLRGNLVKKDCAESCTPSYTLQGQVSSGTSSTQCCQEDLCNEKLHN
Protocol: After biotinylation, the membrane proteins of the X-ray-irradiated MCF10A cells (right) and non-irradiated MCF10A cells (left) were solubilized and subjected to immunoprecipitation using the E33-139 monoclonal antibody, the product was separated by SDS-PAGE, and western blot was performed with HRP-conjugated streptavidin (A: western blot). MCF10A cells treated as described above were digested with PI-PLC, the resultant was centrifuged, and cell pellets (P) and the supernatant (S) subjected to PI-PLC treatment were separately immunoprecipitated (B: western blot). FaDu cells were treated with LY6D siRNA or control siRNA and analyzed by FCM using the E33-139 monoclonal antibody (black line: control siRNA and the E33-139 monoclonal antibody; dashed line: LY6D siRNA and the E33-139 monoclonal antibody; gray: control siRNA without the E33-139 monoclonal antibody (C: FCM). The experiment shown in FIG. 2B was carried out using FaDu cells (D: western blot). Solubilized FaDu cells were subjected to IP using the E33-139 monoclonal antibody and the product was separated by SDS-PAGE (left: western blot using anti-hLY6D Ab (polyclonal Ab, commercial product); right: silver stained gel) (E: western blot).
Conditions of immunoprecipitation were set as previously reported (Kurosawa et al., 2009, J. Immunol. Meth. 351: 1-12). […] The concentrate was analyzed by LC/MS.
Immunoprecipitation (IP) was performed to identify an antigen recognized by the E33-139 antibody. […] They were determined to be detected in precipitates in a nonspecific manner because they are abundant in the cytoplasm. […] Therefore, LY6D was determined to be a promising candidate as an antigen recognized by E33-139.
It has been reported that LY6D is abundantly expressed in a large amount in squamous cell carcinoma of head and neck (Quak et al., 1990, Am. J. Pathol. 136: 191-197). […] Before digestion with PI-PLC, a 14-kDa band was detected by the western blot method. […] The resulting blots were detected using a commercially available anti-human LY6D antibody. […]

## N.N.O=C([O-])C1(C(=O)[O-])CCC1.[Pt+2] [carboplatin]
[1]
  LY6D expression on the surfaces of MCF10A cells: induced

## C[C@@]1(CO)[C@H](O)CC[C@@]2(C)[C@H]1CC[C@H]1C[C@@H]3C[C@@]12CC[C@]3(O)CO [aphidicolin]
[1]
  LY6D expression on the surfaces of MCF10A cells: induced

## NC(=O)NO [hydroxyurea]
[1]
  LY6D expression on the surfaces of MCF10A cells: induced

## CCc1c2c(nc3ccc(OC(=O)N4CCC(N5CCCCC5)CC4)cc13)-c1cc3c(c(=O)n1C2)COC(=O)[C@]3(O)CC [irinotecan]
LY6D expression
  LY6D expression after chemotherapy treatment: significantly enhanced

## CO[C@@]12[C@H](COC(N)=O)C3=C(C(=O)C(C)=C(N)C3=O)N1C[C@@H]1N[C@@H]12 [mitomycin C]
[1]
  LY6D expression on the surfaces of MCF10A cells: induced

B1: E33-139: human phage antibody (scFv) against LY6D; sequence SEQ ID NOS: 1 and 2, CDRs SEQ ID NOS: 3 to 8 (protein)
scFv: MAEVQLVESGGGLVQPGRSLRLSCAASGFTFDDYAMHWVRQAPGKGLEWVSGISWNSGSIGYADSVKGRFTISRDNAKNSLYLQMNSLRAEDTALYYCAKTGILDAFDIWGQGTTVTVSRGGGGSGGGGSGGGGSMAQSVLTQPPSVSGAPRQTVTISCSGSSSNIGQNSVTWYQRLPGEAPKLLIYYDDLLHSGVSDRFSGSKSGTSASLAISGLQSEDEAEYYCASWDDSLKGPVFGGGTKLTVLGQPKAAPSVTLFPPSSEELQANKATLVCLISDFYPGAVTVAWKADSSPVKAGVETTTPSKQSNNKYAASSYLSLTPEQWKSHKSYSCQVTHEGSTVEKTVAPTECSAR
modifications: human
MCF10A cells; X-ray-irradiated MCF10A cells (10Gy)
  reactivity to MCF10A cells after X-ray irradiation: increased reactivity
MCF10A cells; X-ray-irradiated MCF10A cells, FIG. 1C
  binding to molecules on the surfaces of X-ray-irradiated cells, confocal laser microscope analysis: consistently and strongly binds
MCF10A cells; non-irradiated MCF10A cells
  reactivity to MCF10A cells before X-ray irradiation: no reactivity
LY6D; IP, MS, PI-PLC, siRNA and anti-human LY6D western blot
  antigen recognized by the antibody: antigen protein 139 is LY6D
LY6D; samples from X-ray-irradiated MCF10A cells
  14 kDa band in western blot of immunoprecipitate: a prominent band was observed
LY6D; samples from non-irradiated MCF10A cells
  14 kDa band in western blot of immunoprecipitate: slightly observed
